Numbering of substitutions follows the chain as printed.
T1: cynomolgus SIRPβ1 extracellular domain + His-tag (XP_005568598) (cynomolgus monkey)
T1 construct: also called Cyno SIRPβ1; cynoSIRPβ1
T1 chain: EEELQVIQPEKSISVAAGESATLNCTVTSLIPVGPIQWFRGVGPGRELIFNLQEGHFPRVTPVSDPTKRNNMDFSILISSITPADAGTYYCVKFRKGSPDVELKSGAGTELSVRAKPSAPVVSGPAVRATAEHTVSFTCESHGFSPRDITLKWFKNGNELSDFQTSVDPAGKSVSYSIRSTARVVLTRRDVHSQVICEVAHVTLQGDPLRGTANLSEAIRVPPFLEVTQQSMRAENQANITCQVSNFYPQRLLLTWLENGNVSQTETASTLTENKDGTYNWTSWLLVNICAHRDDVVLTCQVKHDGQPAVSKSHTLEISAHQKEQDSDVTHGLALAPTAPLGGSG

T2: cynomolgus SIRPα extracellular domain + His-tag (EGM_02252) (cynomolgus monkey)
T2 construct: also called CySIRPα EGM_02252; cynoSIRPα
T2 chain: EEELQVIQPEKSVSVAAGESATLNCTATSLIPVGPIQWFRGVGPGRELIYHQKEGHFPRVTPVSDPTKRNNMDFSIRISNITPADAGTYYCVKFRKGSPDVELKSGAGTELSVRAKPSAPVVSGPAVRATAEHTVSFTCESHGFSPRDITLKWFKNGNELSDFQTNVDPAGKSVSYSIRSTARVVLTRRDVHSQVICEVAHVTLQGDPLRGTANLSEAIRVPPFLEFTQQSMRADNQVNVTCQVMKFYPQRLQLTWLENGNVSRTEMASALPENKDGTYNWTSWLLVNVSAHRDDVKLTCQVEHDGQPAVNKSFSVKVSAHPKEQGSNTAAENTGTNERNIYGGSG

T3: cynomolgus SIRPβ1v3 extracellular domain + His-tag (XP_005568593) (cynomolgus monkey)
T3 construct: also called Cyno SIRPβ1v3; cynoSIRPβ1v3
T3 chain: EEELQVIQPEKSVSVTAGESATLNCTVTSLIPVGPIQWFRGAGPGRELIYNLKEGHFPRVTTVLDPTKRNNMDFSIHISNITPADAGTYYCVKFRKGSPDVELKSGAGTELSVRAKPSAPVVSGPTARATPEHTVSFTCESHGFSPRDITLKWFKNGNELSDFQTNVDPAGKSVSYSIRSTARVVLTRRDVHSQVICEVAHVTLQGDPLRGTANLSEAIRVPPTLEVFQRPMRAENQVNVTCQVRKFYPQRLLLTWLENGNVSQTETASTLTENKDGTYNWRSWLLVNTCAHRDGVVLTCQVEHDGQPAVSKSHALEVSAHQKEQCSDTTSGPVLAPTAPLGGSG

T4: cynomolgus SIRPγ extracellular domain + His-tag (XP_005568591) (cynomolgus monkey, UniProt Q9P1W8 29-359 (human entry))
T4 construct: also called Cyno SIRPγ; cynoSIRPγ
T4 chain: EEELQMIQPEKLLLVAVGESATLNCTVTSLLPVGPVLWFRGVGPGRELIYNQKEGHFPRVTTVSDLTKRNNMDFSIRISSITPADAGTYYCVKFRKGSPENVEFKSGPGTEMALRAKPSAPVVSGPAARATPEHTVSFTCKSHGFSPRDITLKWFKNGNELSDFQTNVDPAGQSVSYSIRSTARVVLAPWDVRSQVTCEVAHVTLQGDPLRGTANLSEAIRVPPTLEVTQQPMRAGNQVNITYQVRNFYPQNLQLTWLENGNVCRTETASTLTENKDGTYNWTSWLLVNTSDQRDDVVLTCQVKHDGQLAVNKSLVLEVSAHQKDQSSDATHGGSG

T5: cynomolgus SIRPα extracellular domain + His-tag (XP_015313155) (cynomolgus monkey)
T5 construct: also called CySIRPα XP_015313155; cynoSIRPα
T5 chain: T2 chain with E19D, A27V, T28S, V42A, H51N, Q52L, F227V, M245T

B1: Antibody A8 (antibody, human IgG1, kappa, L234A L235A, V domains shown)
VH: EVQLVESGGGLVQPGGSLRLSCAASGFTLSSYDMHWVRQAPGKGLEWVSAIGTAGDTYYTGSVKGRFTISRENAKNSLYLQMNSLRAGDTAVYYCVRGGVWDDAFDIWGQGTMVTVSS
VL: DIQMTQSPSSLSASVGDRVTITCRASQGINNYAAWFQQKPGKAPKSLIYTASSLHSGVPSKFSGSGSGTDFTLTISSLQPEDFATYYCQQYVSYPYTFGQGTKLEIKR
B2: Antibody A5 (antibody, human IgG1, kappa, L234A L235A, V domains shown)
VH: B1 VH with G88S
VL: B1 VL
B3: Antibody A9 (antibody, human IgG1, kappa, L234A L235A, V domains shown)
VH: B1 VH with G88D
VL: B1 VL with G28D, A33L
B4: Antibody A16 (antibody, human IgG1, kappa, L234A L235A, V domains shown)
VH: B1 VH
VL: B1 VL with G28D, A33L
B5: Antibody A12 (antibody, human IgG1, kappa, L234A L235A, V domains shown)
VH: B1 VH with P41T, G88S
VL: B1 VL with G28D, A33L
B6: Antibody A14 (antibody, human IgG1, kappa, L234A L235A, V domains shown)
VH: B1 VH with G88S
VL: B1 VL with G28D, A33L
B7: Antibody A13 (antibody, human IgG1, kappa, L234A L235A, V domains shown)
VH: B1 VH with G88A
VL: B1 VL with G28D, A33L
B8: Antibody A15 (antibody, human IgG1, kappa, L234A L235A, V domains shown)
VH: B1 VH with G88E
VL: B1 VL with G28D, A33L

Target: T6, human SIRPγ extracellular domain + His-tag (NP_061026.2) (human, UniProt Q9P1W8 29-360)
T6 construct: also called hSIRPγ; HuSIRPγ
T6 sequence (Q9P1W8 29-360): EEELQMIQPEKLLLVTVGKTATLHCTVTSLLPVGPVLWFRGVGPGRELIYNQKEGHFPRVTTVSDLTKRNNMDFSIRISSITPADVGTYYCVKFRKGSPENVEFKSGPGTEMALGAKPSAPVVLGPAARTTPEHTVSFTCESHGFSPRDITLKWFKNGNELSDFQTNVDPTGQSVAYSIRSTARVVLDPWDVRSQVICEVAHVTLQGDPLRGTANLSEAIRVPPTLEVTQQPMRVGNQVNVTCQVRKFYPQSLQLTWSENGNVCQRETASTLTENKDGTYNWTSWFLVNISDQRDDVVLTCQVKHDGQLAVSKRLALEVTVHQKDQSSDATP
Test: SPR, Ab captured, ECD-His analyte
Protocol: (§1) The binding affinity of anti-SIRPα antibodies to the various SIRPα analytes is determined by surface plasmon resonance (SPR) using a ProteOn XPR36 (Bio-Rad). The running buffer for this experiment and all dilutions (except where stated) are done in 1×HBS-EP+. […] The sensorchip is deactivated with 1M ethanolamine HCl for 420 sec at a flowrate of 10 μl/min.
(§2) The analyte is injected over the captured antibody for 300 sec at a flowrate of 30 μl/min. The dissociation is done for 600 sec. Two-fold serial dilutions of each SIRP protein (Extracellular Domain+His-Tag) are injected as analyte with the highest concentrations indicated in table 36 below.

Row | binding result | Binder
1 | no binding (tested: 1000 nM) | B1
2 | no binding (tested: 1000 nM) | B2
3 | no binding (tested: 1000 nM) | B3
4 | no binding (tested: 1000 nM) | B4
5 | no binding (tested: 1000 nM) | B5
6 | no binding (tested: 1000 nM) | B6
7 | no binding (tested: 1000 nM) | B7
8 | no binding (tested: 1000 nM) | B8

Target: T7, human SIRPβL/SIRPβ1v3 extracellular domain + His-tag (NP_001129316.1) (human, UniProt Q5TFQ8 30-371)
T7 construct: also called hSIRPβ1v3; HuSIRPβ1v3
T7 sequence (Q5TFQ8 other isoform, or with tags, fused parts or gaps): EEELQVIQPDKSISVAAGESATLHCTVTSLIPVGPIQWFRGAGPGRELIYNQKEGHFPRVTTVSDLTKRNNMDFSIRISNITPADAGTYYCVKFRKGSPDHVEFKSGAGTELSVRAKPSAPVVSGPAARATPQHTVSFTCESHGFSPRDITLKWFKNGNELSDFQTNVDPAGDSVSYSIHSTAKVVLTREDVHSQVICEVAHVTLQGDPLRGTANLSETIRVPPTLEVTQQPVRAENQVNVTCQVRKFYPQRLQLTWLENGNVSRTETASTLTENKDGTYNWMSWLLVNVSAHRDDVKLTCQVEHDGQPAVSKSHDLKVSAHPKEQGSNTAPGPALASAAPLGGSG
Test: SPR, Ab captured, ECD-His analyte
Protocol: as §1, §2

Row | binding result | Binder
9 | no binding (tested: 100 nM) | B1
10 | no binding (tested: 100 nM) | B2
11 | no binding (tested: 100 nM) | B3
12 | no binding (tested: 100 nM) | B4
13 | no binding (tested: 100 nM) | B5
14 | no binding (tested: 100 nM) | B6
15 | no binding (tested: 100 nM) | B7
16 | no binding (tested: 100 nM) | B8

Target: T8, human SIRPβ1 extracellular domain + His-tag (NP_006056.2) (human, UniProt O00241 30-371)
T8 construct: also called hSIRPβ1; HuSIRPβ1
T8 sequence (O00241 other isoform, or with tags, fused parts or gaps): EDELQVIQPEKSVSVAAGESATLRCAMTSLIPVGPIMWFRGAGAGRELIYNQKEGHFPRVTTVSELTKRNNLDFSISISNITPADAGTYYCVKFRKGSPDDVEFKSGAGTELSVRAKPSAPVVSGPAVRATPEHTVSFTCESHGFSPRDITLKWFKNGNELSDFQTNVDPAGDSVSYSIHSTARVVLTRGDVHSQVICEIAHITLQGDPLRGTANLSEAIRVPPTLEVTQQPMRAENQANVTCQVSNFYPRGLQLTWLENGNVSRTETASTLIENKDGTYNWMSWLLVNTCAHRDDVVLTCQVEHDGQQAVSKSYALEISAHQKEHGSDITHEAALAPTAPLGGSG
Test: SPR, Ab captured, ECD-His analyte
Protocol: as §1, §2

Row | Kd | Binder
17 | 69.6 nM | B1
18 | 64.2 nM | B2
19 | 58.8 nM | B3
20 | 62.7 nM | B4
21 | 64.4 nM | B5
22 | 58.3 nM | B6
23 | 61 nM | B7
24 | 58.8 nM | B8

Target: T1, cynomolgus SIRPβ1 extracellular domain …
Test: SPR, Ab captured, ECD-His analyte
Protocol: as §1, §2

Row | binding result | Binder
25 | no binding (tested: 1000 nM) | B1
26 | no binding (tested: 1000 nM) | B2
27 | no binding (tested: 1000 nM) | B3
28 | no binding (tested: 1000 nM) | B4
29 | no binding (tested: 1000 nM) | B5
30 | no binding (tested: 1000 nM) | B6
31 | no binding (tested: 1000 nM) | B7
32 | no binding (tested: 1000 nM) | B8

Target: T2, cynomolgus SIRPα extracellular domain + …
Test: SPR, Ab captured, ECD-His analyte
Protocol: as §1, §2

Row | Kd | Binder
33 | 535 nM | B1
34 | 533 nM | B2
35 | 227 nM | B3
36 | 225 nM | B4
37 | 249 nM | B5
38 | 222 nM | B6
39 | 226 nM | B7
40 | 223 nM | B8

Target: T3, cynomolgus SIRPβ1v3 extracellular …
Test: SPR, Ab captured, ECD-His analyte
Protocol: as §1, §2

Row | Kd | Binder
41 | 449 nM | B1
42 | 465 nM | B2
43 | 257 nM | B3
44 | 225 nM | B4
45 | 279 nM | B5
46 | 235 nM | B6
47 | 238 nM | B7
48 | 232 nM | B8

Target: T4, cynomolgus SIRPγ extracellular domain + …
Test: SPR, Ab captured, ECD-His analyte
Protocol: as §1, §2

Row | binding result | Binder
49 | no binding (tested: 1000 nM) | B1
50 | no binding (tested: 1000 nM) | B2
51 | no binding (tested: 1000 nM) | B3
52 | no binding (tested: 1000 nM) | B4
53 | no binding (tested: 1000 nM) | B5
54 | no binding (tested: 1000 nM) | B6
55 | no binding (tested: 1000 nM) | B7
56 | no binding (tested: 1000 nM) | B8

Target: T5, cynomolgus SIRPα extracellular domain + …
Test: SPR, Ab captured, ECD-His analyte
Protocol: as §1, §2

Row | Kd | Binder
57 | 350 nM | B1
58 | 347 nM | B2
59 | 156 nM | B3
60 | 151 nM | B4
61 | 182 nM | B5
62 | 153 nM | B6
63 | 160 nM | B7
64 | 154 nM | B8
